Test results reported in paper PMC2756588.

T1: Abp1, P15891
T1 sequence (P15891 535-592, looked up): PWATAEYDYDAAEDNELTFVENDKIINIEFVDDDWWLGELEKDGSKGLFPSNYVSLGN

T2: Bbc1, P47068
T2 sequence (P47068 1-78, looked up): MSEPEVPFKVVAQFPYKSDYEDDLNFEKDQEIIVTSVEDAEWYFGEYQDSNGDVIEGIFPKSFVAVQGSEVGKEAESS

T3: Boi1, P38041
T3 sequence (P38041 1-86, looked up): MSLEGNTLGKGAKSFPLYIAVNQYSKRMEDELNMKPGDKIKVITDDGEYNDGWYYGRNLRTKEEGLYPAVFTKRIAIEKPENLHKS

T4: Boi2, P39969
T4 sequence (P39969 32-116, looked up): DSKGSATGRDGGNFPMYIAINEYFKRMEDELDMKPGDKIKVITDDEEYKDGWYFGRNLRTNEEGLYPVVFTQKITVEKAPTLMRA

T5: Bud14, P27637
T5 sequence (P27637 247-328, looked up): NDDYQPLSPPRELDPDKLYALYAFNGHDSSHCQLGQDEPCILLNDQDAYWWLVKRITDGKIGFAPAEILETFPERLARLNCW

T6: Bzz1-1, P38822
T6 sequence (P38822 478-572, looked up): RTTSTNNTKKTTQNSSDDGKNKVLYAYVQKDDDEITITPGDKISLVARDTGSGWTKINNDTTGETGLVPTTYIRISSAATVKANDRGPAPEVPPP

T7: Bzz1-2, P38822
T7 sequence (P38822 568-633, looked up): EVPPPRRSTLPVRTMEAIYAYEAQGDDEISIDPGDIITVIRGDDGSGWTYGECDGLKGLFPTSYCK

T8: Cdc25, P04821
T8 sequence (P04821 50-136, looked up): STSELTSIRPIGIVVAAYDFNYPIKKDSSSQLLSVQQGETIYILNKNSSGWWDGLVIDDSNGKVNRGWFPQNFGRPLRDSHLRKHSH

T9: Cyk3, Q07533
T9 sequence (Q07533 1-83, looked up): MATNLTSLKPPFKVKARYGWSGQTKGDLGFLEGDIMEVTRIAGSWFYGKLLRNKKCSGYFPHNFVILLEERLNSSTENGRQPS

T10: Fus1, P11710
T10 sequence (P11710 432-512, looked up): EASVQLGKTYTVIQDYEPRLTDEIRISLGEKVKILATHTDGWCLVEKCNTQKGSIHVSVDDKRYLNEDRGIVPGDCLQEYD

T11: Hof1, Q05080
T11 sequence (Q05080 590-669, looked up): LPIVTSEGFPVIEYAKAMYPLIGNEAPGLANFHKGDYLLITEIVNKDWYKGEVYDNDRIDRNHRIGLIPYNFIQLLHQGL

T12: Hse1, P38753
T12 sequence (P38753 208-285, looked up): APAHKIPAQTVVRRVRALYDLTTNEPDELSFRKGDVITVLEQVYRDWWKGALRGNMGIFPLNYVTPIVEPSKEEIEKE

T13: Lsb1, P53281
T13 sequence (P53281 45-122, looked up): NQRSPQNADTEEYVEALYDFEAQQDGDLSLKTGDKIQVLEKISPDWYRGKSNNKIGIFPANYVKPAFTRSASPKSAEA

T14: Lsb3, P43603
T14 sequence (P43603 385-451, looked up): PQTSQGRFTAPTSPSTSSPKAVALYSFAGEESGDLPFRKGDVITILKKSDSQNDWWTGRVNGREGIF

T15: Lsb4, P32793
T15 sequence (P32793 402-468, looked up): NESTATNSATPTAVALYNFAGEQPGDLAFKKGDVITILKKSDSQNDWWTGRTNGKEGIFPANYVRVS

T16: Myo5, Q04439
T16 sequence (Q04439 1072-1160, looked up): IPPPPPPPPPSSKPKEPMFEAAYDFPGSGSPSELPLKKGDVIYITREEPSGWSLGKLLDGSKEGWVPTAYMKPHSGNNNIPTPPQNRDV

T17: Nbp2, Q12163
T17 sequence (Q12163 103-180, looked up): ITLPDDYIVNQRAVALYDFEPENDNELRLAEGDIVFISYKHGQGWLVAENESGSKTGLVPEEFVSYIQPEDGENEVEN

T18: Pex13, P80667
T18 sequence (P80667 295-386, looked up): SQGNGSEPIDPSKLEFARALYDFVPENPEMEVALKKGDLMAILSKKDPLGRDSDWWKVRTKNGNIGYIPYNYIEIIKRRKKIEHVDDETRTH

T19: Pin3, Q06449
T19 sequence (Q06449 53-122, looked up): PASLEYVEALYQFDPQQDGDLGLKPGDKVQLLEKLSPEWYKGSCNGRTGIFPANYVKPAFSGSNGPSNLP

T20: Sla1-2, P32790
T20 sequence (P32790 60-140, looked up): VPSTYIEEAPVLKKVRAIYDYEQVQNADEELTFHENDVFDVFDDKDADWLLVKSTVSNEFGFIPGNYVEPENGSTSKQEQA

T21: Sla1-3, P32790
T21 sequence (P32790 344-424, looked up): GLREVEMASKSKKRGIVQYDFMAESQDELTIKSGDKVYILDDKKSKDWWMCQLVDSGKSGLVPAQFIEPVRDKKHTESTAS


target: T1, Abp1, P15891; test: SPOT array; conditions: median of control spots 935

| SPOT intensity | Binder |
| --- | --- |
| 42 | QPQRTAPKPPISAPR |
| 107 | VRTRRRPPPPPIPST |
| 102 | STPQTMRQAPKRPDA |

target: T2, Bbc1, P47068; test: SPOT array; conditions: median of control spots 796

| SPOT intensity | Binder |
| --- | --- |
| 55 | QPQRTAPKPPISAPR |
| 115 | VRTRRRPPPPPIPST |
| 8 | STPQTMRQAPKRPDA |

target: Bem1-1, P29366; test: SPOT array; conditions: median of control spots 4282
Sequence (P29366 55-141): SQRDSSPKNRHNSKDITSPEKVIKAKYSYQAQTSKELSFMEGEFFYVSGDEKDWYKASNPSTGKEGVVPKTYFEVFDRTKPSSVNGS

| SPOT intensity | Binder |
| --- | --- |
| 0 | QPQRTAPKPPISAPR |
| 0 | VRTRRRPPPPPIPST |
| 0 | STPQTMRQAPKRPDA |

target: Bem1-2, P29366; test: SPOT array; conditions: median of control spots 4347
Sequence (P29366 139-227): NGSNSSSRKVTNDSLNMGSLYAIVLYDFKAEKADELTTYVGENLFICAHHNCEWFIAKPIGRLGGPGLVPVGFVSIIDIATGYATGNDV

| SPOT intensity | Binder |
| --- | --- |
| 45 | QPQRTAPKPPISAPR |
| 109 | VRTRRRPPPPPIPST |
| 2 | STPQTMRQAPKRPDA |

target: T3, Boi1, P38041; test: SPOT array; conditions: median of control spots 1162

| SPOT intensity | Binder |
| --- | --- |
| 0 | QPQRTAPKPPISAPR |
| 1 | VRTRRRPPPPPIPST |
| 0 | STPQTMRQAPKRPDA |

target: T4, Boi2, P39969; test: SPOT array; conditions: median of control spots 1161

| SPOT intensity | Binder |
| --- | --- |
| 1 | QPQRTAPKPPISAPR |
| 1 | VRTRRRPPPPPIPST |
| 1 | STPQTMRQAPKRPDA |

target: T5, Bud14, P27637; test: SPOT array; conditions: median of control spots 956

| SPOT intensity | Binder |
| --- | --- |
| 2 | QPQRTAPKPPISAPR |
| 8 | VRTRRRPPPPPIPST |
| 0 | STPQTMRQAPKRPDA |

target: T6, Bzz1-1, P38822; test: SPOT array; conditions: median of control spots 4446

| SPOT intensity | Binder |
| --- | --- |
| 2 | QPQRTAPKPPISAPR |
| 1720 | VRTRRRPPPPPIPST |
| 0 | STPQTMRQAPKRPDA |

target: T7, Bzz1-2, P38822; test: SPOT array; conditions: median of control spots 4538

| SPOT intensity | Binder |
| --- | --- |
| 2 | QPQRTAPKPPISAPR |
| 4030 | VRTRRRPPPPPIPST |
| 2 | STPQTMRQAPKRPDA |

target: T8, Cdc25, P04821; test: SPOT array; conditions: median of control spots 969

| SPOT intensity | Binder |
| --- | --- |
| 3 | QPQRTAPKPPISAPR |
| 0 | VRTRRRPPPPPIPST |
| 0 | STPQTMRQAPKRPDA |

target: T9, Cyk3, Q07533; test: SPOT array; conditions: median of control spots 1451

| SPOT intensity | Binder |
| --- | --- |
| 0 | QPQRTAPKPPISAPR |
| 1 | VRTRRRPPPPPIPST |
| 1 | STPQTMRQAPKRPDA |

target: T10, Fus1, P11710; test: SPOT array; conditions: median of control spots 1200

| SPOT intensity | Binder |
| --- | --- |
| 0 | QPQRTAPKPPISAPR |
| 0 | VRTRRRPPPPPIPST |
| 0 | STPQTMRQAPKRPDA |

target: GST; test: SPOT array; conditions: median of control spots 978

| SPOT intensity | Binder |
| --- | --- |
| 0 | QPQRTAPKPPISAPR |
| 2 | VRTRRRPPPPPIPST |
| 1 | STPQTMRQAPKRPDA |

target: T11, Hof1, Q05080; test: SPOT array; conditions: median of control spots 4086

| SPOT intensity | Binder |
| --- | --- |
| 0 | QPQRTAPKPPISAPR |
| 6 | VRTRRRPPPPPIPST |
| 0 | STPQTMRQAPKRPDA |

target: T12, Hse1, P38753; test: SPOT array; conditions: median of control spots 1727

| SPOT intensity | Binder |
| --- | --- |
| 0 | QPQRTAPKPPISAPR |
| 29 | VRTRRRPPPPPIPST |
| 0 | STPQTMRQAPKRPDA |

target: T13, Lsb1, P53281; test: SPOT array; conditions: median of control spots 388

| SPOT intensity | Binder |
| --- | --- |
| 3 | QPQRTAPKPPISAPR |
| 171 | VRTRRRPPPPPIPST |
| 24 | STPQTMRQAPKRPDA |

target: T14, Lsb3, P43603; test: SPOT array; conditions: median of control spots 406

| SPOT intensity | Binder |
| --- | --- |
| 2 | QPQRTAPKPPISAPR |
| 38 | VRTRRRPPPPPIPST |
| 45 | STPQTMRQAPKRPDA |

target: T15, Lsb4, P32793; test: SPOT array; conditions: median of control spots 397

| SPOT intensity | Binder |
| --- | --- |
| 1 | QPQRTAPKPPISAPR |
| 39 | VRTRRRPPPPPIPST |
| 33 | STPQTMRQAPKRPDA |

target: Myo3, P36006; test: SPOT array; conditions: median of control spots 468

| SPOT intensity | Binder |
| --- | --- |
| 294 | QPQRTAPKPPISAPR |
| 296 | VRTRRRPPPPPIPST |
| 47 | STPQTMRQAPKRPDA |

target: T16, Myo5, Q04439; test: SPOT array; conditions: median of control spots 471

| SPOT intensity | Binder |
| --- | --- |
| 230 | QPQRTAPKPPISAPR |
| 188 | VRTRRRPPPPPIPST |
| 47 | STPQTMRQAPKRPDA |

target: T17, Nbp2, Q12163; test: SPOT array; conditions: median of control spots 357

| SPOT intensity | Binder |
| --- | --- |
| 276 | QPQRTAPKPPISAPR |
| 35 | VRTRRRPPPPPIPST |
| 53 | STPQTMRQAPKRPDA |

target: T18, Pex13, P80667; test: SPOT array; conditions: median of control spots 1341

| SPOT intensity | Binder |
| --- | --- |
| 44 | QPQRTAPKPPISAPR |
| 8 | VRTRRRPPPPPIPST |
| 116 | STPQTMRQAPKRPDA |

target: T19, Pin3, Q06449; test: SPOT array; conditions: median of control spots 2171

| SPOT intensity | Binder |
| --- | --- |
| 7 | QPQRTAPKPPISAPR |
| 11 | VRTRRRPPPPPIPST |
| 192 | STPQTMRQAPKRPDA |

target: Rvs167, P39743; test: SPOT array; conditions: median of control spots 2707
Sequence (P39743 419-482): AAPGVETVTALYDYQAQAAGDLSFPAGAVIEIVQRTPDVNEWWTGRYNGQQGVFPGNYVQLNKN

| SPOT intensity | Binder |
| --- | --- |
| 0 | QPQRTAPKPPISAPR |
| 45 | VRTRRRPPPPPIPST |
| 0 | STPQTMRQAPKRPDA |

target: Sho1, P40073; test: SPOT array; conditions: median of control spots 1148
Sequence (P40073 287-367): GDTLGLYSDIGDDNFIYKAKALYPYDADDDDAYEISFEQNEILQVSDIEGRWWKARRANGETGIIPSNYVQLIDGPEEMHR

| SPOT intensity | Binder |
| --- | --- |
| 0 | QPQRTAPKPPISAPR |
| 46 | VRTRRRPPPPPIPST |
| 4 | STPQTMRQAPKRPDA |

target: T20, Sla1-2, P32790; test: SPOT array; conditions: median of control spots 712

| SPOT intensity | Binder |
| --- | --- |
| 0 | QPQRTAPKPPISAPR |
| 4 | VRTRRRPPPPPIPST |
| 2 | STPQTMRQAPKRPDA |

target: T21, Sla1-3, P32790; test: SPOT array; conditions: median of control spots 5475

| SPOT intensity | Binder |
| --- | --- |
| 9 | QPQRTAPKPPISAPR |
| 1790 | VRTRRRPPPPPIPST |
| 2 | STPQTMRQAPKRPDA |
